Test results published in paper PMC10837205 (Cell Research, 2024).

Target: T1, biotinylated soluble human LDLR (sohLDLR) (human, UniProt P01130-1 22-788, biotin (biotinylated; site not stated))
T1 construct: also called biotinylated LDLR; soluble biotinylated LDLR; source: bought: SinoBiological #10231-H08H-B
Assay: BLI
Settings: both partners purified

T1 sequence (P01130 22-788): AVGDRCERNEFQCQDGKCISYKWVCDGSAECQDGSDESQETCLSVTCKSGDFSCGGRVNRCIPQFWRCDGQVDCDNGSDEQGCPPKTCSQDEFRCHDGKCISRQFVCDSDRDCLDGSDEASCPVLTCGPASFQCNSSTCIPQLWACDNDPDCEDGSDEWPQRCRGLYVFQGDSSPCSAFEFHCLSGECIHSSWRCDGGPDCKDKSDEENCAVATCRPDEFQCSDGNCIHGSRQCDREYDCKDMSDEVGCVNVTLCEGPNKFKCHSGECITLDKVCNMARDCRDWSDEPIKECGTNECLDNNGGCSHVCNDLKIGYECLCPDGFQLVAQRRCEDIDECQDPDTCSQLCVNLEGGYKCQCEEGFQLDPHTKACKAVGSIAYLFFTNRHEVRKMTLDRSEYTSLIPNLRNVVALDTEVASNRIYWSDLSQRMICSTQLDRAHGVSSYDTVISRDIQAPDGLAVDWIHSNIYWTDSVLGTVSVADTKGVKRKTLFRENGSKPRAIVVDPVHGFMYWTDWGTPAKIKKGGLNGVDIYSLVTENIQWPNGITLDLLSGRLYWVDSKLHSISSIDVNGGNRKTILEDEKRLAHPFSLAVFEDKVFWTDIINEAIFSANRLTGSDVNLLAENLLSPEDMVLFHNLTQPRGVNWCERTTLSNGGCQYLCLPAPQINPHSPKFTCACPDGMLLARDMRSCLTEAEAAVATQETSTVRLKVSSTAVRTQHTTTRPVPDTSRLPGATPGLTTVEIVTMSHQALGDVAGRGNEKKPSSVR

B1: VSV G protein (Indiana strain) (natural protein)
chain: KFTIVFPHNQKGNWKNVPSNYHYCPSSSDLNWHNDLIGTAIQVKMPKSHKAIQADGWMCHASKWVTTCDFRWYGPKYITQSIRSFTPSVEQCKESIEQTKQGTWLNPGFPPQSCGYATVTDAEAVIVQVTPHHVLVDEYTGEWVDSQFINGKCSNYICPTVHNSTTWHSDYKVKGLCDSNLISMDITFFSEDGELSSLGKEGTGFRSNYFAYETGGKACKMQYCKHWGVRLPSGVWFEMADKDLFAAARFPECPEGSSISAPSQTSVDVSLIQDVERILDYSLCQETWSKIRAGLPISPVDLSYLAPKNPGTGPAFTIINGTLKYFETRYIRVDIAAPILSRMVGMISGTTTERELWDDWAPYEDVEIGPNGVLRTSSGYKFPLYMIGHGMLDSDLHLSSKAQVFEHPHIQDAASQLPDDESLFFGDTGLSKNPIELVEGWFSSWKSSIASFFFIIGLIIGLFLVLRVGIHLCIKLKHTKKRQIYTDIEMNRLGK
Question: For B1, which Kd is on record?
Answer: 54.3 nM
